Where “and” joins values, the source holds several entries; their conditions need not be identical. Equal values may be shown once.
Biological target: S318-510 fragment (amino acids 318-510 of the S protein of SARS-CoV strain Frankfurt 1) (SARS-CoV strain Frankfurt 1, UniProt P59594 318-510)

B1: CR03-014 (antibody, V domains shown)
VH: EVQLVESGGGLVQPGGSLRLSCAASGFTFSDHYMDWVRQAPGKGLEWVGRTRNKANSYTTEYAASVKGRFTISRDDSKNSLYLQMNSLKTEDTAVYYCARGISPFYFDYWGQGTLVTVSS
VL: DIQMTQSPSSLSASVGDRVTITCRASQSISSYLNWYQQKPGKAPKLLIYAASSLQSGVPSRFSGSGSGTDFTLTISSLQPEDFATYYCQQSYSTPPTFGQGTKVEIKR
Kd: 16.3 nM and 14.8 nM

— patent US20080014204A1 (CRUCELL HOLLAND B V, published 2008)
